Test results reported in article PMC9329571, “Regulation of TIA-1 Condensates: Zn2+ and RGG Motifs Promote Nucleic Acid Driven LLPS and Inhibit Irreversible Aggregation”.

Tests used:
TIA-1 RRM2,3 = target: T1, TIA-1 RRM2,3 (UniProt P31483-2 93-274); assay: fluorescence anisotropy; 12 mM arginine; FA: 10 mM HEPES pH 7.2, 50 mM NaCl, 12 mM arginine (further 1 mM component truncated in the text); temperature not stated; KD from two independent measurements.; conditions: protein: recombinant; tags: 6xHis removed with thrombin; label: 5'-fluorescein; single strand
T1 sequence: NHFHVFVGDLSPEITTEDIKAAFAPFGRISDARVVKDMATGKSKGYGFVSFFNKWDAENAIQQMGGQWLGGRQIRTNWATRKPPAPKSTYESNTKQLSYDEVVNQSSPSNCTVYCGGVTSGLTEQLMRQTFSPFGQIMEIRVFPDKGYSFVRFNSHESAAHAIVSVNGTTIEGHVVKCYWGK

[1] = target: FUS-RBD (RGG1-RRM-RGG2-ZnF-RGG3) (UniProt P35637 242-526); assay: as above; conditions: protein: recombinant; tags: N-terminal GB1-6xHis; label: 5'-fluorescein; single strand
Chain of FUS-RBD (RGG1-RRM-RGG2-ZnF-RGG3) (P35637 242-526): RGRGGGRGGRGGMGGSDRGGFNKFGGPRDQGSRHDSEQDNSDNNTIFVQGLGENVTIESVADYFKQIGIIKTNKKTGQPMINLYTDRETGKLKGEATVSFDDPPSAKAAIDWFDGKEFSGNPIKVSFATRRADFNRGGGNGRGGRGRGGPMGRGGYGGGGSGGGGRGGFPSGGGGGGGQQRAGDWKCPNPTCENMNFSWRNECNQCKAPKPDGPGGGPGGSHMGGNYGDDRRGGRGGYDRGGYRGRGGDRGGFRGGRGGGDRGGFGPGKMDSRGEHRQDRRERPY

B1: TC1 (ssDNA)
DNA: TTTTTACTCC
Kd (TIA-1 RRM2,3): 2 nM | Kd [1]: 30 nM
